Measurements: the supplement of paper PMC9112550, “Optimization of the antimicrobial peptide Bac7 by deep mutational scanning” (BMC Biology, 2022)

System: Escherichia coli TOP10
Experiment: shrunken log2 fold change of peptide-encoding DNA abundance (4.5 h post-induction vs induction); higher = less antimicrobial activity (less host growth inhibition)
Conditions: time post-induction: 4.5 h; library: site-saturation at positions 5, 18, 19, 20
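Note: peptides expressed intracellularly from a pBAD plasmid library in pooled LB shake-flask culture, induced with 0.3% L-arabinose, DNA abundance read by NGS, three biological replicates, DESeq2 with apeglm shrinkage.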

Sequence	shrunken log2 fold change
RRIRQRPPRLPRPRPRPTTVPRP	-0.114
RRIRQRPPRLPRPRPRPTWGPRP	0.168
RRIRQRPPRLPRPRPRPTYDPRP	-0.338
RRIRQRPPRLPRPRPRPVCNPRP	-0.0714
RRIRQRPPRLPRPRPRPVCPPRP	-0.0461
RRIRQRPPRLPRPRPRPVEVPRP	-0.0922
RRIRQRPPRLPRPRPRPVEWPRP	0.0152
RRIRQRPPRLPRPRPRPVGPPRP	0.231
RRIRQRPPRLPRPRPRPVKWPRP	0.746
RRIRQRPPRLPRPRPRPVLDPRP	0.0663
RRIRQRPPRLPRPRPRPVLSPRP	-0.0147
RRIRQRPPRLPRPRPRPVMLPRP	-0.124
RRIRQRPPRLPRPRPRPVPQPRP	0.0925
RRIRQRPPRLPRPRPRPVTRPRP	0.0193
RRIRQRPPRLPRPRPRPVTWPRP	-0.073
RRIRQRPPRLPRPRPRPVVMPRP	0.0928
RRIRQRPPRLPRPRPRPVVQPRP	-0.0933
RRIRQRPPRLPRPRPRPVWLPRP	0.2
RRIRQRPPRLPRPRPRPVYEPRP	-0.0143
RRIRQRPPRLPRPRPRPVYHPRP	-0.83
RRIRQRPPRLPRPRPRPVYVPRP	-0.216
RRIRQRPPRLPRPRPRPWAFPRP	-0.000467
RRIRQRPPRLPRPRPRPWAPPRP	0.0985
RRIRQRPPRLPRPRPRPWCHPRP	-0.169
RRIRQRPPRLPRPRPRPWCWPRP	0.304

Sequence	shrunken log2 fold change
RRIRQRPPRLPRPRPRPWDFPRP	0.2
RRIRQRPPRLPRPRPRPWDSPRP	-0.198
RRIRQRPPRLPRPRPRPWFLPRP	-0.0618
RRIRQRPPRLPRPRPRPWFSPRP	-0.102
RRIRQRPPRLPRPRPRPWHYPRP	-0.484
RRIRQRPPRLPRPRPRPWIEPRP	-0.0606
RRIRQRPPRLPRPRPRPWIMPRP	-0.141
RRIRQRPPRLPRPRPRPWIPPRP	0.0265
RRIRQRPPRLPRPRPRPWKAPRP	-0.112
RRIRQRPPRLPRPRPRPWKEPRP	-0.103
RRIRQRPPRLPRPRPRPWLGPRP	-0.0417
RRIRQRPPRLPRPRPRPWLMPRP	-0.102
RRIRQRPPRLPRPRPRPWLNPRP	-0.0662
RRIRQRPPRLPRPRPRPWMPPRP	-0.167
RRIRQRPPRLPRPRPRPWNEPRP	-0.139
RRIRQRPPRLPRPRPRPWPPPRP	0.16
RRIRQRPPRLPRPRPRPWPWPRP	0.0839
RRIRQRPPRLPRPRPRPWQAPRP	0.124
RRIRQRPPRLPRPRPRPWQVPRP	-0.154
RRIRQRPPRLPRPRPRPWSPPRP	-0.106
RRIRQRPPRLPRPRPRPWWCPRP	-0.105
RRIRQRPPRLPRPRPRPWYFPRP	-0.289
RRIRQRPPRLPRPRPRPYAAPRP	-0.175
RRIRQRPPRLPRPRPRPYCCPRP	-0.781
RRIRQRPPRLPRPRPRPYCWPRP	-0.554

Sequence	shrunken log2 fold change
RRIRQRPPRLPRPRPRPYEMPRP	-0.153
RRIRQRPPRLPRPRPRPYETPRP	-0.427
RRIRQRPPRLPRPRPRPYFGPRP	-0.305
RRIRQRPPRLPRPRPRPYIWPRP	-0.0658
RRIRQRPPRLPRPRPRPYKSPRP	-0.248
RRIRQRPPRLPRPRPRPYLWPRP	-0.0736
RRIRQRPPRLPRPRPRPYMCPRP	-0.184
RRIRQRPPRLPRPRPRPYMEPRP	-0.26
RRIRQRPPRLPRPRPRPYMSPRP	-0.655
RRIRQRPPRLPRPRPRPYMVPRP	-0.176
RRIRQRPPRLPRPRPRPYNAPRP	-0.0247
RRIRQRPPRLPRPRPRPYNTPRP	-0.325
RRIRQRPPRLPRPRPRPYNWPRP	-0.11
RRIRQRPPRLPRPRPRPYPPPRP	-0.357
RRIRQRPPRLPRPRPRPYPRPRP	-0.258
RRIRQRPPRLPRPRPRPYQQPRP	-0.0082
RRIRQRPPRLPRPRPRPYTHPRP	-0.723
RRIRQRPPRLPRPRPRPYTTPRP	-0.0148
RRIRQRPPRLPRPRPRPYVNPRP	-0.00544
RRIRQRPPRLPRPRPRPYWDPRP	-0.192
RRIRQRPPRLPRPRPRPYYSPRP	-0.39
RRIRQRPPRLPRPRPRPYYTPRP	-0.363
RRIRQRPPRLPRPRPRPYYVPRP	-0.0108
RRIRRRPPRLPRPRPRPACLPRP	0.623
RRIRRRPPRLPRPRPRPADVPRP	0.146

Sequence	shrunken log2 fold change
RRIRRRPPRLPRPRPRPAEAPRP	0.148
RRIRRRPPRLPRPRPRPAFNPRP	0.201
RRIRRRPPRLPRPRPRPAGLPRP	0.153
RRIRRRPPRLPRPRPRPAGSPRP	0.384
RRIRRRPPRLPRPRPRPAHIPRP	0.0825
RRIRRRPPRLPRPRPRPAIDPRP	0.193
RRIRRRPPRLPRPRPRPAIWPRP	0.356
RRIRRRPPRLPRPRPRPAKCPRP	0.0405
RRIRRRPPRLPRPRPRPAKMPRP	0.113
RRIRRRPPRLPRPRPRPALEPRP	0.264
RRIRRRPPRLPRPRPRPALYPRP	0.225
RRIRRRPPRLPRPRPRPAMCPRP	0.319
RRIRRRPPRLPRPRPRPAMEPRP	0.019
RRIRRRPPRLPRPRPRPAMVPRP	0.00501
RRIRRRPPRLPRPRPRPAPHPRP	0.858
RRIRRRPPRLPRPRPRPAQHPRP	0.369
RRIRRRPPRLPRPRPRPAQNPRP	0.398
RRIRRRPPRLPRPRPRPAQRPRP	0.414
RRIRRRPPRLPRPRPRPARVPRP	0.349
RRIRRRPPRLPRPRPRPASFPRP	0.309
RRIRRRPPRLPRPRPRPATCPRP	0.161
RRIRRRPPRLPRPRPRPATLPRP	0.332
RRIRRRPPRLPRPRPRPATQPRP	0.691
RRIRRRPPRLPRPRPRPATWPRP	0.359
RRIRRRPPRLPRPRPRPAVNPRP	0.125

Sequence	shrunken log2 fold change
RRIRRRPPRLPRPRPRPAVQPRP	0.0814
RRIRRRPPRLPRPRPRPAWIPRP	0.358
RRIRRRPPRLPRPRPRPAWSPRP	0.321
RRIRRRPPRLPRPRPRPAYCPRP	0.0506
RRIRRRPPRLPRPRPRPAYMPRP	0.0857
RRIRRRPPRLPRPRPRPCCNPRP	-0.029
RRIRRRPPRLPRPRPRPCDDPRP	-0.0703
RRIRRRPPRLPRPRPRPCDNPRP	0.0406
RRIRRRPPRLPRPRPRPCELPRP	-0.0595
RRIRRRPPRLPRPRPRPCEMPRP	0.36
RRIRRRPPRLPRPRPRPCEYPRP	0.0177
RRIRRRPPRLPRPRPRPCGYPRP	0.0658
RRIRRRPPRLPRPRPRPCHRPRP	-0.0875
RRIRRRPPRLPRPRPRPCHWPRP	0.092
RRIRRRPPRLPRPRPRPCIRPRP	-0.135
RRIRRRPPRLPRPRPRPCKPPRP	0.151
RRIRRRPPRLPRPRPRPCLDPRP	-0.167
RRIRRRPPRLPRPRPRPCLPPRP	-0.132
RRIRRRPPRLPRPRPRPCLVPRP	-0.096
RRIRRRPPRLPRPRPRPCLYPRP	-0.117
RRIRRRPPRLPRPRPRPCMIPRP	-0.108
RRIRRRPPRLPRPRPRPCMTPRP	0.409
RRIRRRPPRLPRPRPRPCMWPRP	0.313
RRIRRRPPRLPRPRPRPCPAPRP	0.392
RRIRRRPPRLPRPRPRPCPHPRP	-0.27

Sequence	shrunken log2 fold change
RRIRRRPPRLPRPRPRPCPSPRP	0.0616
RRIRRRPPRLPRPRPRPCQMPRP	0.0273
RRIRRRPPRLPRPRPRPCRGPRP	0.17
RRIRRRPPRLPRPRPRPCRHPRP	-0.105
RRIRRRPPRLPRPRPRPCRLPRP	0.144
RRIRRRPPRLPRPRPRPCRQPRP	0.0284
RRIRRRPPRLPRPRPRPCSEPRP	-0.0216
RRIRRRPPRLPRPRPRPCSKPRP	-0.123
RRIRRRPPRLPRPRPRPCTWPRP	-0.0877
RRIRRRPPRLPRPRPRPCVNPRP	-0.0549
RRIRRRPPRLPRPRPRPCWSPRP	-0.0452
RRIRRRPPRLPRPRPRPDARPRP	0.553
RRIRRRPPRLPRPRPRPDDFPRP	0.252
RRIRRRPPRLPRPRPRPDDTPRP	0.139
RRIRRRPPRLPRPRPRPDEHPRP	-0.0368
RRIRRRPPRLPRPRPRPDFEPRP	0.552
RRIRRRPPRLPRPRPRPDFTPRP	0.0748
RRIRRRPPRLPRPRPRPDGAPRP	0.766
RRIRRRPPRLPRPRPRPDIAPRP	-0.0619
RRIRRRPPRLPRPRPRPDIYPRP	0.0543
RRIRRRPPRLPRPRPRPDLEPRP	0.0267
RRIRRRPPRLPRPRPRPDLTPRP	0.521
RRIRRRPPRLPRPRPRPDMAPRP	0.373
RRIRRRPPRLPRPRPRPDMCPRP	0.019
RRIRRRPPRLPRPRPRPDMWPRP	0.103
